Data: US20110311553A1 (Boehringer Ingelheim, published 2011)
Residue numbers refer to the chain shown, from its start.

B1: Ab4994 IgG4_Pro (antibody, V domains shown)
VH: QVQLVESGGGLVQPGGSLRLSCAASGFTFSSYAMNWVRQAPGKGLEWVSAISYSGHLTGYADSVKGRFTISRDNSKNTLYLQMNSLRAEDTAVYYCARIQNDPMDVWGQGTLVTVSS
VL: DIELTQPPSVSVAPGQTARISCSGDNLGKKYVQWYQQKPGQAPVLVIYDDSNRPSGIPERFSGSNSGNTATLTISGTQAEDEADYYCSSWDVGSDGWVFGGGTKLTVLG
B2: Ab4999 IgG4_Pro (antibody, V domains shown)
VH: B1 VH with A50T, G55S, H56S, L57A, G59S
VL: DIELTQPPSVSVAPGQTARISCSGDNLGKKYVQWYQQKPGQAPVLVIYDDSNRPSGIPERFSGSNSGNTATLTISGTQAEDEADYYCQTWDYSSIRDETNVFGGGTKLTVLG
B3: Ab5149 IgG4_Pro (light chain of Ab4999 combined with heavy chain of Ab4997) (antibody, V domains shown)
VH: B1 VH with S54N, H56K, T58K
VL: B2 VL
B4: Ab5007 IgG4_Pro (antibody, V domains shown)
VH: B1 VH with Y53F
VL: B1 VL
B5: Ab5003 IgG4_Pro (antibody, V domains shown)
VH: B1 VH with S54K
VL: B1 VL
B6: Ab5005 IgG4_Pro (antibody, V domains shown)
VH: B1 VH with A50T, G55S, H56S, L57A, G59S
VL: DIELTQPPSVSVAPGQTARISCSGDNLGKKYVQWYQQKPGQAPVLVIYDDSNRPSGIPERFSGSNSGNTATLTISGTQAEDEADYYCQSWALVGSSESNVFGGGTKLTVLG
B7: Ab5150 IgG4_Pro (light chain of Ab4999 combined with heavy chain of Ab5003) (antibody, V domains shown)
VH: B1 VH with S54K
VL: B2 VL
B8: Ab4997 IgG4_Pro (antibody, V domains shown)
VH: B1 VH with S54N, H56K, T58K
VL: B1 VL
B9: Ab5151 IgG4_Pro (light chain of Ab4999 combined with heavy chain of Ab5007) (antibody, V domains shown)
VH: B1 VH with Y53F
VL: B2 VL
B10: Ab4996 IgG4_Pro (antibody, V domains shown)
VH: QVQLVESGGGLVQPGGSLRLSCAASGFTFSNHAMHWVRQAPGKGLEWVSAISHPGKFTYYADSVKGRFTISRDNSKNTLYLQMNSLRAEDTAVYYCARHGDGMDYFDFWGQGTLVTVSS
VL: DIELTQPPSVSVAPGQTARISCSGDNIGTKYVYWYQQKPGQAPVLVIYDDNNRPSGIPERFSGSNSGNTATLTISGTQAEDEADYYCQSYDSQTMVFGGGTKLTVLG

What follows are binders tested against Labeled peptide representing the N-terminus of PAR-2 (FRET peptide) (assay: cell-based or functional assay).

FRET Peptide Cleavage IC50, < 30 nM:
B1
B2
B3
B4
B5
B6
B7
B8
B9
B10
